Results on 3 molecules are retold here after paper PMC11109316, “In vivo neutralization of coral snake venoms with an oligoclonal nanobody mixture in a murine challenge model” (Nature Communications, 2024).

The test has as its target T1, α-cobratoxin (Naja kaouthia, UniProt P01391).
T1 construct: also called long chain αNTx from Naja kaouthia; source: bought: Latoxan
Put plainly: DELFIA (dose-response, capture format). The note with it: both partners purified.

B1: TPL0629_01_A07 (VHH)
VHH: QVQLQESGGGLVQAGGSLRLSCTASEGTVSYSTVGWFRQAPGGGRDLVAQSGSSDEDTHVAGSVKGRFTISRDNTNNTVYLQMSSLKPEDSAVYYCAAAPGDQYKYWGQGTQVTVSS
notes: also called anti-αNTx VHH
For the molecule B1, the binding result is “no binding (tested: 1 µM)”.

B2: TPL0629_01_D11 (VHH)
VHH: QVQLQESGGGLVQAGGSLRLSCAGSGDALGSYTMGWFRQAPGGGRDLVAQISVDGSSTYHLDSVRGRFTASRDNAKNTVYLEMNSLNSEDTAVYYCAAAPLLRGNYDYWGQGTQVTVSS
notes: also called anti-αNTx VHH; monovalent VHH
Consider B2, for which the binding result was “no binding (tested: 1 µM)”.

B3: TPL0629_01_G06 (VHH)
VHH: QVQLQESGGGLVQAGGSLRLSCAASGRAFSSYTMGWFRQAPGDMRELVAQITSSGSSTYHIDSVEGRFAISRDNAKNTVYLQMNSLQPEDAAIYYCAGGLNAYQYWGQGTQVTVSS
notes: also called anti-αNTx VHH
Regarding B3, the binding result was “no binding (tested: 1 µM)”.
